# Data as given in US20040138134A1.
# Target: natriuretic peptide receptor on C3H10T1/2 cells
# Test: cell-based or functional assay
row,"% relative binding (cGMP, Biotrak EIA, peptide at 10^-6 M)",Binder
1,5.42%,CFGLMLDRIGSMSGLGC [CNP variant SEQ ID NO:44]
2,13.9%,CIGLKLDRIGSMSGLGC [CNP variant SEQ ID NO:28]
3,9.45%,CFGLKLERIGSMSGLGC [CNP variant SEQ ID NO:35]
4,29.7%,CFGLLLDRIGSMSGLGC [CNP variant SEQ ID NO:43]
5,13.5%,CFGLKLDHIGSMSGLGC [CNP variant SEQ ID NO:48]
6,-10.8%,CWGLKLDRIGSMSGLGC [CNP variant SEQ ID NO:31]
7,6.25%,CLGLKLDRIGSMSGLGC [CNP variant SEQ ID NO:29]
8,-17.1%,CFGLKLQRIGSMSGLGC [CNP variant SEQ ID NO:36]
9,20.2%,CFGAKLDRIGSMSGLGC [CNP variant SEQ ID NO:40]
10,11.3%,CFGLKADRIGSMSGLGC [CNP variant SEQ ID NO:45]
11,-1.34%,CMGLKLDRIGSMSGLGC [CNP variant SEQ ID NO:30]
12,-5.85%,CAGLKLARIGSMSGLGC [CNP variant SEQ ID NO:24]
13,7.23%,CFGLKLIRIGSMSGLGC [CNP variant SEQ ID NO:38]
14,7.78%,CFGLKLMRIGSMSGLGC [CNP variant SEQ ID NO:39]
15,-10.4%,CAGLKLARIGSASGLGC [CNP variant SEQ ID NO:27]
16,64.2%,CFGVKLDRIGSMSGLGC [CNP variant SEQ ID NO:42]
17,5.7%,CHGLKLDRIGSMSGLGC [CNP variant SEQ ID NO:33]
18,17.2%,CFGLKLNRIGSMSGLGC [CNP variant SEQ ID NO:37]
19,-6.9%,CTGLKLDRIGSMSGLGC [CNP variant SEQ ID NO:34]
20,88.1%,CFGLKIDRIGSMSGLGC [CNP variant SEQ ID NO:46]
21,5.75%,CFGLKLARIGSASGLGC [CNP variant SEQ ID NO:26]
22,47.4%,CFGIKLDRIGSMSGLGC [CNP variant SEQ ID NO:41]
23,21.5%,CFGLKLDKIGSMSGLGC [CNP variant SEQ ID NO:49]
24,5.74%,CVGLKLDRIGSMSGLGC [CNP variant SEQ ID NO:32]
25,66.7%,CFGLKVDRIGSMSGLGC [CNP variant SEQ ID NO:47]
